The source of these data is patent publication US11396668B2, “Methods of producing nor-opioid and nal-opioid benzylisoquinoline alkaloids” (priority 2016, dated 2022).

Positions count from the first letter of the chain named.

Assay [1] relates to tyrosine hydroxylase activity (wild-type RnTyrH). Description: L-DOPA and BH4 levels with antioxidant added to growth media of engineered yeast. The class given is cell-based. The following applies: 2 mM in the media. The text has this:
A yeast strain containing the following mutations to central metabolism (as described in U.S. Provisional Patent Application Ser. No. 61/899,496): ARO4^FBR, ΔZWF1, and GPD-TKL1 promoter replacement and expressing four chromosomally integrated genes from R. norvegicus that generate the cosubstrate tetrahydrobiopterin (pyruvoyl tetrahydropterin synthase, PTPS; sepiapterin reductase, SepR; pterin 4a-carbinolamine dehydratase, PCD; dihydropteridine reductase, QDHPR) as well as wild-type RnTyrH from a low-copy plasmid under the control of the GPD promoter was grown in selective defined media (YNB) lacking tyrosine with 2% galactose and 2 mM ascorbic acid for 96 hours.
The production of L-DOPA was measured in the media via LC-MS/MS in MRM mode with the transition 198 m/z to 152 m/z. […] In addition, the concentration BH4 intermediates were measured with LC-MS/MS in MRM mode with the following transitions: B, 238 m/z to 178 m/z; BH2, 240 m/z to 165 m/z and BH4, 242 m/z to 166 m/z.
Accordingly, FIG. 11A illustrates addition of antioxidants to culture media that improves L-DOPA production by tyrosine hydroxylase in engineered yeast strains and (B) addition of antioxidants to culture media that increase BH4 levels, in accordance with embodiments of the invention. […] The production of L-DOPA was measured in the media via LC-MS/MS in MRM mode with the transition 198 m/z to 152 m/z. […]

Assay [2] has as its system L-DOPA production by tyrosine hydroxylase. In words: L-DOPA production with DHFR coexpressed with wild-type RnTyrH in engineered yeast. The class given is cell-based. The following applies: YNB lacking tyrosine, 2% dextrose, 96 hours. The text has this:
Dihydrofolate reductase (DHFR) from R. norvegicus was yeast codon optimized, synthesized, and cloned into a low-copy plasmid under the control of a GPD promoter. DHFR was coexpressed with wild-type RnTyrH (low-copy plasmid with a GPD promoter) in a yeast strain containing the following mutations to central metabolism (as described in U.S. Provisional Patent Application Ser. No. 61/899,496): ARO4^FBR, ΔZWF1, and GPD-TKL1 promoter replacement. In addition, the strain expressed four chromosomally integrated genes from R. norvegicus that generate the cosubstrate tetrahydrobiopterin (pyruvoyl tetrahydropterin synthase, PTPS; sepiapterin reductase, SepR; pterin 4a-carbinolamine dehydratase, PCD; dihydropteridine reductase, QDHPR). The strains expressing DHFR and wild-type RnTyrH were grown in selective defined media (YNB) lacking tyrosine with 2% dextrose for 96 hours, and the production of L-DOPA was measured in the media via LC-MS/MS in MRM mode with the transition 198 m/z to 152 m/z. Expression of DHFR with wild-type RnTyrH increases L-DOPA production by 1.8-fold, as illustrated in FIG. 10. As such, FIG. 10 illustrates coexpression of dihydrofolate reductase (DHFR) that improves L-DOPA production by tyrosine hydroxylase in engineered yeast strains, in accordance with embodiments of the invention.

The subject of another assay is thebaine. Description: Thebaine N-demethylase activity of BM3 variants in yeast. The class given is cell-based, yeast strains (CEN.PK2). The settings on record: 100 μM thebaine, 20 hours, buffers pH 5.0-8.5. How it is done: (§1) Specifically, BM3 variants 4H9, 7A1, and 8F11 (listed in Table 6) were integrated into the genomes of individual yeast strains (CEN.PK2) and incubated in citric acid-phosphate buffer (pH 5.0, 6.0, 7.0) and Tris-HCl buffer (pH 7.5, 8.0, 8.5) with 100 μM thebaine for 20 hours. A genetic construct which was identical except for the exclusion of the BM3 open reading frame was integrated to generate a no-enzyme control strain. […] The northebaine generated by the yeast strains was quantified by liquid chromatography mass spectrometry. The mass spectrum of northebaine (m/z 298) lacked the m/z 58 product ion consistent with a demethylated nitrogen (see FIG. 27C).
as §1, with “FIG. 27A, FIG. 27B and FIG. 27C illustrate the functional expression of BM3 variants, in accordance with embodiments of the invention. […] FIG. 27B illustrates the functional expression of BM3 variants with thebaine N-demethylase activity in yeast.” for “Specifically,”, “8F11” for “8F11 (listed in Table 6)”

The next assay relates to oxycodone. Description: Oxycodone 3-O-demethylase activity of CODM in crude yeast cell lysate. The class given is biochemical, yeast strain W303. The following applies: 0.1 mM oxycodone, 10 mM 2-oxoglutarate, 30° C., 3 h, LC-MS. How it is done:
FIG. 29 illustrates the functional expression of CODM, in accordance with embodiments of the invention. In particular, FIG. 29 illustrates the functional expression of CODM with oxycodone 3-O-demethylase activity in yeast. The yeast codon-optimized CODM gene was integrated into the genome of yeast strain W303 and cultured in synthetic complete media for 16 hours. The parent W303 strain was also cultured in synthetic complete media for 16 hours as a no-enzyme control. The cells were pelleted and washed with 1 mL breaking buffer (100 mM Tris-HCl pH 7.5, 10% glycerol, 14 mM 2-mercaptoethanol, lx protease inhibitor). Cells were resuspended in 200 μL breaking buffer and lysed by glass bead disruption. The crude cell lysates were incubated with 10 mM ascorbic acid, 0.5 mM iron(II) sulfate, 0.1 mM oxycodone as substrate and 10 mM 2-oxoglutarate as cosubstrate in a total volume of 100 μL. 4 mM DTT was also added as a reducing agent to keep iron in the Fe^2+ state. The reaction was incubated at 30° C. for 3 h and quenched by diluting it 1:1 in ethanol with 0.1% acetic acid. […] The mass-charge ratio (m/z 302), retention time, and mass spectrum of oxymorphone produced by the yeast strain matched that of a purchased oxymorphone standard (see FIG. 29).

On to `O=C1O[C@H]([C@@H](O)CO)C(O)=C1O` [ascorbic acid], for which, in assay [1] (96 hours), the “improvement of L-DOPA production with wild-type RnTyrH” value amounted to 1.8 fold. Moreover, the “BH4 in the media” value in assay [1] (LC-MS/MS) is on record as “increases BH4 in the media”.

B1: DHFR: Dihydrofolate reductase from R. norvegicus, yeast codon optimized, expressed from low-copy plasmid (protein, UniProt Q920D2 1-187, looked up)
Dihydrofolate reductase: MVRPLNCIVAVSQNMGIGKNGDLPWPLLRNEFKYFQRMTTTSSVEGKQNLVIMGRKTWFSIPEKNRPLKDRINIVLSRELKEPPQGAHFLAKSLDDALKLIEQPELASKVDMVWVVGGSSVYQEAMNQPGHLRLFVTRIMQEFESDTFFPEIDLEKYKLLPEYPGVLSEIQEEKGIKYKFEVYEKKD
As to B1, the “increase of L-DOPA production” value in assay [2] was determined as 1.8 fold.

B2: 4H9: BM3 variant (Bacillus megaterium cytochrome P450) listed in Table 6 (protein)
chain: MTIKEMPQPKTFGELKNLPLLNTDKPVQALMKIADELGEIFKFEAPGRVTRYLSSQRLIKEACDESRFDKNLSQALKFARDFAGDGLVTSWTHEKNWKKAHNILLPSFSQQAMKGYHAMMVDIAVQLVQKWERLNADEHIEVSEDMTRLTLDTIGLCGFNYRFNSFYRDQPHPFIISMVRAADEVMNKLQRANPDDPAYDENKRQFQEDIKVMNDLVDKIIADRKARGEQSDDLLTQMLNGKDPETGEPLDDGNIRYQIIAFLIAGHETTSGLLSFALYFLVKNPHVLQKVAEEAARVLVDPVPSYKQVKQLKYVGMVLNEALRLWPTAPAFSLYAKEDTVLGGEYPLEKGDEVMVLIPQLHRDKTVWGDDVEEFRPERFENPSAIPQHAFKPFGNGQRACIGQQFALHEATLVLGMMLKHFDFEDHTNYELDIKETATLKPKGFVVKAKSKKIPLGGIPSPSTEQSAKKVRKKAENAHNTPLLVLYGSNMGTAEGTARDLADIAMSKGFAPQVATLDSHAGNLPREGAVLIVTASYNGHPPDNAKQFVDWLDQASADEVKGVRYSVFGCGDKNWATTYQKVPAFIDETLAAKGAENIADRGEADASDDFEGTYEEWREHMWSDVAAYFNLDIENSEDNKSTLSLQFVDSAADMPLAKMHGAFSTNVVASKELQQPGSARSTRHLEIELPKEASYQEGDHLGVIPRNYEGIVNRVTARFGLDASQQIRLEAEEEKLAHLPLAKTVSVEELLQYVELQDPVTRTQLRAMAAKTVCPPHKVELEALLEKQAYKEQVLAKRLTMLELLEKYPACEMKFSEFIALLPSIRPRYYSISSSPRVDEKQASITVSVVSGEAWSGYGEYKGIASNYLAELQEGDTITCFISTPQSEFTLPKDPETPLIMVGPGTGVAPFRGFVQARKQLKEQGQSLGEAHLYFGCRSPHEDYLYQEELENAQSEGIITLHTAFSRMPNQPKTYVQHVMEQDGKKLIELLDQGAHFYICGDGSQMAPAVEATLMKSYADVHQVSEADARLWLQQLEEKGRYAKDVWAG
Regarding B2, the “northebaine production from thebaine (N-demethylation)” value (shortened to “northebaine production from thebaine”) in the assay with thebaine is “produced northebaine at all tested pH levels above 7.0”.

B3: 8F11: BM3 variant (Bacillus megaterium cytochrome P450) listed in Table 6 (protein)
chain: B2 chain with A182L, A261T
For B3, the “northebaine production from thebaine” value with thebaine was “produced northebaine at all tested pH levels above 7.0”.

B4: 7A1: BM3 variant (Bacillus megaterium cytochrome P450) listed in Table 6 (protein)
chain: B2 chain with L76A, M178A, A438L
As to B4, the “northebaine production from thebaine” value in the assay with thebaine was “produced northebaine at all tested pH levels above 7.0”.

B5: CODM: codeine O-demethylase, yeast codon-optimized gene integrated into yeast strain W303 (protein, listed as Papaver somniferum)
chain: METPILIKLGNGLSIPSVQELAKLTLAEIPSRYTCTGESPLNNIGASVTDDETVPVIDLQNLLSPEPVVGKLELDKLHSACKEWGFFQLVNHGVDALLMDNIKSEIKGFFNLPMNEKTKYGQQDGDFEGFGQPYIESEDQRLDWTEVFSMLSLPLHLRKPHLFPELPLPFRETLESYLSKMKKLSTVVFEMLEKSLQLVEIKGMTDLFEDGLQTMRMNYYPPCPRPELVLGLTSHSDFSGLTILLQLNEVEGLQIRKEERWISIKPLPDAFIVNVGDILEIMTNGIYRSVEHRAVVNSTKERLSIATFHDSKLESEIGPISSLVTPETPALFKRGRYEDILKENLSRKLDGKSFLDYMRM
As for B5, the “oxymorphone generated from oxycodone (3-O-demethylation)” value in the assay on oxycodone is “detected by LC-MS”.
